Source: US20240400715A1 (VIBRANT PHARMA, published 2024)
Numbering of substitutions follows the chain as printed.

B1: 103 (Fab-Knob+Hole-CEA) (bispecific antibody, human IgG4 S228P, kappa, F234A L235A)
heavy: EVKLLESGGGLVQPKGSLKLSCAASGFTFNTYAMNWVRQAPGKGLEWVARIRSKYNNYATYYADSVKDRFTISRDDSQSILYLQMNNLKTEDTAMYYCVRHGNFGNSYVSWFAYWGQGTLVTVSSASTKGPSVFPLAPCSRSTSESTAALGCLVKDYFPEPVTVSWNSGALTSGVHTFPAVLQSSGLYSLSSVVTVPSSSLGTKTYTCNVDHKPSNTKVDKRVESKYGPPCPPCPAPEAAGGPSVFLFPPKPKDTLMISRTPEVTCVVVDVSQEDPEVQFNWYVDGVEVHNAKTKPREEQFNSTYRVVSVLTVLHQDWLNGKEYKCKVSNKGLPSSIEKTISKAKGQPREPQVYTLPPCQEEMTKNQVSLWCLVKGFYPSDIAVEWESNGQPENNYKTTPPVLDSDGSFFLYSRLTVDKSRWQEGNVFSCSVMHEALHNHYTQKSLSLSL
chain: ESKYGPPCPPCPAPEAAGGPSVFLFPPKPKDTLMISRTPEVTCVVVDVSQEDPEVQFNWYVDGVEVHNAKTKPREEQFNSTYRVVSVLTVLHQDWLNGKEYKCKVSNKGLPSSIEKTISKAKGQPREPQVCTLPPSQEEMTKNQVSLSCAVKGFYPSDIAVEWESNGQPENNYKTTPPVLDSDGSFFLVSRLTVDKSRWQEGNVFSCSVMHEALHNRFTQKSLSLSLGGGGSGGGGSEVQLVESGGGFVQAGESLTLSCTSSTLTFTPYRMAWYRQAPGKQRDLVADISSGDGRTTNYADFAKGRFTISRDNIKNTVFLRMTNLKPEDTAVYYCNTFVSFVGIARSWGQGTQVTVSS
light: QAVVTQESALTTSPGETVTLTCRSSTGAVTTSNYANWVQEKPDHLFTGLIGGTNKRAPGVPARFSGSLIGDKAALTITGAQTEDEAIYFCALWYSNLWVFGGGTKVEIKRTVAAPSVFIFPPSDEQLKSGTASVVCLLNNFYPREAKVQWKVDNALQSGNSQESVTEQDSKDSTYSLSSTLTLSKADYEKHKVYACEVTHQGLSSPVTKSFNRGEC
notes: TA1 Fab, C17 VHH, IgG4 Fc KIH
B2: 107 (CEA-Knob-Fab-+Hole) (bispecific antibody, human IgG4 S228P, kappa, F234A L235A)
heavy: EVQLVESGGGFVQAGESLTLSCTSSTLTFTPYRMAWYRQAPGKQRDLVADISSGDGRTTNYADFAKGRFTISRDNIKNTVFLRMTNLKPEDTAVYYCNTFVSFVGIARSWGQGTQVTVSSESKYGPPCPPCPAPEAAGGPSVFLFPPKPKDTLMISRTPEVTCVVVDVSQEDPEVQFNWYVDGVEVHNAKTKPREEQFNSTYRVVSVLTVLHQDWLNGKEYKCKVSNKGLPSSIEKTISKAKGQPREPQVYTLPPCQEEMTKNQVSLWCLVKGFYPSDIAVEWESNGQPENNYKTTPPVLDSDGSFFLYSRLTVDKSRWQEGNVFSCSVMHEALHNHYTQKSLSLSLGGGGSGGGGEVKLLESGGGLVQPKGSLKLSCAASGFTFNTYAMNWVRQAPGKGLEWVARIRSKYNNYATYYADSVKDRFTISRDDSQSILYLQMNNLKTEDTAMYYCVRHGNFGNSYVSWFAYWGQGTLVTVSSASTKGPSVFPLAPCSRSTSESTAALGCLVKDYFPEPVTVSWNSGALTSGVHTFPAVLQSSGLYSLSSVVTVPSSSLGTKTYTCNVDHKPSNTKVDKRV
chain: ESKYGPPCPPCPAPEAAGGPSVFLFPPKPKDTLMISRTPEVTCVVVDVSQEDPEVQFNWYVDGVEVHNAKTKPREEQFNSTYRVVSVLTVLHQDWLNGKEYKCKVSNKGLPSSIEKTISKAKGQPREPQVCTLPPSQEEMTKNQVSLSCAVKGFYPSDIAVEWESNGQPENNYKTTPPVLDSDGSFFLVSRLTVDKSRWQEGNVFSCSVMHEALHNRFTQKSLSLSL
light: B1 light
notes: TA1 Fab, C17 VHH, IgG4 Fc KIH
B3: 108 (Knob-Fab+CEA-Hole) (bispecific antibody, human IgG4 S228P, kappa, F234A L235A)
heavy: ESKYGPPCPPCPAPEAAGGPSVFLFPPKPKDTLMISRTPEVTCVVVDVSQEDPEVQFNWYVDGVEVHNAKTKPREEQFNSTYRVVSVLTVLHQDWLNGKEYKCKVSNKGLPSSIEKTISKAKGQPREPQVYTLPPCQEEMTKNQVSLWCLVKGFYPSDIAVEWESNGQPENNYKTTPPVLDSDGSFFLYSRLTVDKSRWQEGNVFSCSVMHEALHNHYTQKSLSLSLGGGGSGGGGSEVKLLESGGGLVQPKGSLKLSCAASGFTFNTYAMNWVRQAPGKGLEWVARIRSKYNNYATYYADSVKDRFTISRDDSQSILYLQMNNLKTEDTAMYYCVRHGNFGNSYVSWFAYWGQGTLVTVSSASTKGPSVFPLAPCSRSTSESTAALGCLVKDYFPEPVTVSWNSGALTSGVHTFPAVLQSSGLYSLSSVVTVPSSSLGTKTYTCNVDHKPSNTKVDKRV
chain: EVQLVESGGGFVQAGESLTLSCTSSTLTFTPYRMAWYRQAPGKQRDLVADISSGDGRTTNYADFAKGRFTISRDNIKNTVFLRMTNLKPEDTAVYYCNTFVSFVGIARSWGQGTQVTVSSESKYGPPCPPCPAPEAAGGPSVFLFPPKPKDTLMISRTPEVTCVVVDVSQEDPEVQFNWYVDGVEVHNAKTKPREEQFNSTYRVVSVLTVLHQDWLNGKEYKCKVSNKGLPSSIEKTISKAKGQPREPQVCTLPPSQEEMTKNQVSLSCAVKGFYPSDIAVEWESNGQPENNYKTTPPVLDSDGSFFLVSRLTVDKSRWQEGNVFSCSVMHEALHNRFTQKSLSLSL
light: B1 light
notes: TA1 Fab, C17 VHH, IgG4 Fc KIH
B4: 105 (Knob-CEA+Fab-Hole) (bispecific antibody, human IgG4 S228P, kappa, F234A L235A)
chain: B1 chain with C131Y, S136C, S148W, A150L, V189Y, R217H, F218Y
heavy: B1 heavy with Y354C, C359S, W371S, L373A, Y412V, H440R, Y441F
light: B1 light
notes: TA1 Fab, C17 VHH, IgG4 Fc KIH
B5: 106 (Knob+Fab-Hole-CEA) (bispecific antibody, human IgG4 S228P, kappa, F234A L235A)
chain: B2 chain with C131Y, S136C, S148W, A150L, V189Y, R217H, F218Y
heavy: EVKLLESGGGLVQPKGSLKLSCAASGFTFNTYAMNWVRQAPGKGLEWVARIRSKYNNYATYYADSVKDRFTISRDDSQSILYLQMNNLKTEDTAMYYCVRHGNFGNSYVSWFAYWGQGTLVTVSSASTKGPSVFPLAPCSRSTSESTAALGCLVKDYFPEPVTVSWNSGALTSGVHTFPAVLQSSGLYSLSSVVTVPSSSLGTKTYTCNVDHKPSNTKVDKRVESKYGPPCPPCPAPEAAGGPSVFLFPPKPKDTLMISRTPEVTCVVVDVSQEDPEVQFNWYVDGVEVHNAKTKPREEQFNSTYRVVSVLTVLHQDWLNGKEYKCKVSNKGLPSSIEKTISKAKGQPREPQVCTLPPSQEEMTKNQVSLSCAVKGFYPSDIAVEWESNGQPENNYKTTPPVLDSDGSFFLVSRLTVDKSRWQEGNVFSCSVMHEALHNRFTQKSLSLSLGGGGSGGGGSEVQLVESGGGFVQAGESLTLSCTSSTLTFTPYRMAWYRQAPGKQRDLVADISSGDGRTTNYADFAKGRFTISRDNIKNTVFLRMTNLKPEDTAVYYCNTFVSFVGIARSWGQGTQVTVSS
light: B1 light
notes: TA1 Fab, C17 VHH, IgG4 Fc KIH
B6: 104 (CEA-Knob+Fab-Hole) (bispecific antibody, human IgG4 S228P, kappa, F234A L235A)
chain: B3 chain with C251Y, S256C, S268W, A270L, V309Y, R337H, F338Y
heavy: B1 heavy with Y354C, C359S, W371S, L373A, Y412V, H440R, Y441F
light: B1 light
notes: TA1 Fab, C17 VHH, IgG4 Fc KIH

target: T1, human CD3ε/δ (ACRO systems, CDD-H52W1) (human, UniProt P07766 23-126; P04234 22-105); assay: serum-stability ELISA, Day 2 vs Day 0
T1 construct: bought recombinant heterodimer; also called human CD3 epsilon/delta; Human CD3ε/CD3δ
Protocol: (§1) The samples to be tested were centrifuged at 4° C. at 12000 rpm for 30 minutes to remove the precipitate. 200 μl of each sample to be tested (0.5 mg/ml) was collected in a 1.5 ml Eppendorf tube. An equal volume of human serum (GEMINI, H2OYOOK) was added, mixed thoroughly, and the mixture was incubated in a 37° C. constant temperature CO₂ incubator. For a total of 10 days, 40 μl samples was aspirated every day and stored at −20° C.
(§2) Enzyme-linked immunosorbent assay (ELISA) was used to test the bispecific antibodies' binding to human CEA and human CD3 epsilon/delta antigen. The steps are as follows: the antigen human CD3ε/δ (ACRO systems, CDD-H52W1) and the recombinant tumor antigen human CEA (CEACAM-5/CD66e, ACRO systems, CE5-H5226) were diluted to 1 μg/ml with PBS, and then added to the 96-well plate at 100 μl per well. The wells were coated overnight at 4° C. After washing 3 times with 0.05% PBST, 200 μl 5% skimmed milk powder was added to each well and incubated at 37° C. for 2 h. After washing 3 times with 0.05% PBST, 100 μl primary antibody sample (10 μg/ml) was added to each well, and incubated at 37° C. for 2 h. After washing 3 times with 0.05% PBST, 100 μl (1:6000) diluted secondary antibody goat anti-human Fc-HRP (sigma, A2170) was added to each well, incubated at room temperature for 1 h. After washing 8 times with 0.05% PBST, 50 μl TMB color developing solution was added to each well, and incubated at room temperature for 10-15 min. 50 μl 1 mM HCl was added to each well to stop the color development. 450 nm Absorbance (OD) was read.
(§3) The binding of antibodies to antigen was calculated according to the following formula: Binding (%)=[(ODdayn−ODb)/(ODday0−ODb)]×100%. ODdayn: experimental well (the protein was stored in the serum for n days); ODday0: control well (the protein was not stored in the serum); ODb: blank well (no primary antibody added).

Binder | Binding % [%]
B1 | 106
B2 | 123
B3 | 98
B4 | 106
B5 | 115
B6 | 110

target: T1, human CD3ε/δ (ACRO systems, CDD-H52W1); assay: serum-stability ELISA, Day 5 vs Day 0
Protocol: as §1, §2, §3

Binder | Binding % [%]
B1 | 105
B2 | 122
B3 | 96.1
B4 | 107
B5 | 116
B6 | 104

target: T1, human CD3ε/δ (ACRO systems, CDD-H52W1); assay: serum-stability ELISA, Day 6 vs Day 0
Protocol: as §1, §2, §3

Binder | Binding % [%]
B1 | 105
B2 | 123
B3 | 98.4
B4 | 104
B5 | 122
B6 | 104

target: T1, human CD3ε/δ (ACRO systems, CDD-H52W1); assay: serum-stability ELISA, Day 0 (reference)
Protocol: as §1, §2, §3

Binder | Binding % [%]
B1 | 100
B2 | 100
B3 | 100
B4 | 100
B5 | 100
B6 | 100

target: T1, human CD3ε/δ (ACRO systems, CDD-H52W1); assay: serum-stability ELISA, Day 9 vs Day 0
Protocol: as §1, §2, §3

Binder | Binding % [%]
B1 | 103
B2 | 118
B3 | 98.5
B4 | 105
B5 | 112
B6 | 108

target: T1, human CD3ε/δ (ACRO systems, CDD-H52W1); assay: serum-stability ELISA, Day 7 vs Day 0
Protocol: as §1, §2, §3

Binder | Binding % [%]
B1 | 107
B2 | 125
B3 | 98.8
B4 | 101
B5 | 118
B6 | 103

target: T1, human CD3ε/δ (ACRO systems, CDD-H52W1); assay: serum-stability ELISA, Day 10 vs Day 0
Protocol: as §1, §2, §3

Binder | Binding % [%]
B1 | 100
B2 | 102
B3 | 66.7
B4 | 99.2
B5 | 106
B6 | 107

target: T1, human CD3ε/δ (ACRO systems, CDD-H52W1); assay: serum-stability ELISA, Day 1 vs Day 0
Protocol: as §1, §2, §3

Binder | Binding % [%]
B1 | 101
B2 | 118
B3 | 93
B4 | 103
B5 | 111
B6 | 107
